Measurements published in publication doi:10.1101/2021.08.20.457142.

B1: MKK6 D-site peptide / p38-alpha (MAPK14) L195A, full length (parent complex)
chain 1: SQSKGKKRNPGLKIPKEAFEQP
chain 2: MSQERPTFYRQELNKTVWEVPERYQNLSPVGSGAYGSVCAAFDTKTGHRVAVKKLSRPFQSIIHAKRTYRELRLLKHMKHENVIGLLDVFTPARSLEEFNDVYLVTHLMGADLNNIVKCQKLTDDHVQFLIYQILRGLKYIHSADIIHRDLKPSNLAVNEDCELKILDFGLARHTDDEMTGYVATRWYRAPEIMANWMHYNQTVDIWSVGCIMAELLTGRTLFPGTDHIDQLKLILRLVGTPGAELLKKISSESARNYIQSLAQMPKMNFANVFIGANPLAVDLLEKMLVLDSDKRITAAQALAHAYFAQYHDPDDEPVAEPYDQSFESRDFLIDEWKSLTYDEVISFVPPPLDQEEMES

Variants of: B1

screen value | Variant
-0.162 Z-score of the enrichment rate within one screen of 711 sequences | chain 1 SQSKAKKANPGLKIPKEAFEQP
-0.0905 Z-score of the enrichment rate within one screen of 711 sequences | chain 1 SQSAGKKRNAGLKIPKEAFEQP
1.01 Z-score of the enrichment rate within one screen of 711 sequences | chain 1 SQSKGAKRNPGLKIAKEAFEQP
1.13 Z-score of the enrichment rate within one screen of 711 sequences | chain 1 SQSKAAKRNPGLKIPKEAFEQP
-1.08 Z-score of the enrichment rate within one screen of 711 sequences | chain 1 SQSKGKKRNPGAAIPKEAFEQP
-0.243 Z-score of the enrichment rate within one screen of 711 sequences | chain 1 SQSKGKKRNPGLKAPAEAFEQP
0.469 Z-score of the enrichment rate within one screen of 711 sequences | chain 1 SQSKGYKRNPGLKIPKEAFEQP
0.521 Z-score of the enrichment rate within one screen of 711 sequences | chain 1 SQSKGGKRNPGLKIPKEAFEQP
0.831 Z-score of the enrichment rate within one screen of 711 sequences | chain 1 SQSKGCKRNPGLKIPKEAFEQP
1.22 Z-score of the enrichment rate within one screen of 711 sequences | chain 1 SQSKGMKRNPGLKIPKEAFEQP
0.936 Z-score of the enrichment rate within one screen of 711 sequences | chain 1 SQSKGWKRNPGLKIPKEAFEQP
0.371 Z-score of the enrichment rate within one screen of 711 sequences | chain 1 SQSKGQKRNPGLKIPKEAFEQP
-0.694 Z-score of the enrichment rate within one screen of 711 sequences | chain 1 SQSKGKAANPGLKIPKEAFEQP
-0.887 Z-score of the enrichment rate within one screen of 711 sequences | chain 1 SQSKGKKRNPAAKIPKEAFEQP
0.565 Z-score of the enrichment rate within one screen of 711 sequences | chain 1 SQSAGKKRNPALKIPKEAFEQP
-0.245 Z-score of the enrichment rate within one screen of 711 sequences | chain 1 SQSKGAKRAPGLKIPKEAFEQP
-0.96 Z-score of the enrichment rate within one screen of 711 sequences | chain 1 SQSKGKKRAPGAKIPKEAFEQP
1.64 Z-score of the enrichment rate within one screen of 711 sequences | chain 1 SQGKGKKRNPGLKIPKEAFEQP
1.74 Z-score of the enrichment rate within one screen of 711 sequences | chain 1 SQTKGKKRNPGLKIPKEAFEQP
1.56 Z-score of the enrichment rate within one screen of 711 sequences | chain 1 SQAKGKKRNPGLKIPKEAFEQP
2.21 Z-score of the enrichment rate within one screen of 711 sequences | chain 1 SQMKGKKRNPGLKIPKEAFEQP
1.82 Z-score of the enrichment rate within one screen of 711 sequences | chain 1 SQYKGKKRNPGLKIPKEAFEQP
2.3 Z-score of the enrichment rate within one screen of 711 sequences | chain 1 SQRKGKKRNPGLKIPKEAFEQP
1.81 Z-score of the enrichment rate within one screen of 711 sequences | chain 1 SQQKGKKRNPGLKIPKEAFEQP
1.56 Z-score of the enrichment rate within one screen of 711 sequences | chain 1 SQHKGKKRNPGLKIPKEAFEQP

screen value | Variant
0.57 Z-score of the enrichment rate within one screen of 711 sequences | chain 1 SQAKGAKRNPGLKIPKEAFEQP
-0.884 Z-score of the enrichment rate within one screen of 711 sequences | chain 1 SQSKGKKRNAGAKIPKEAFEQP
-0.373 Z-score of the enrichment rate within one screen of 711 sequences | chain 1 SQSKGKKRNPGAKIAKEAFEQP
-0.724 Z-score of the enrichment rate within one screen of 711 sequences | chain 1 SQSAGKKRNPGLAIPKEAFEQP
-1.04 Z-score of the enrichment rate within one screen of 711 sequences | chain 1 SQSKGKKANPGLAIPKEAFEQP
0.766 Z-score of the enrichment rate within one screen of 711 sequences | chain 1 SQSKGKARNPGLKIAKEAFEQP
0.284 Z-score of the enrichment rate within one screen of 711 sequences | chain 1 SQSKGKKRNNGLKIPKEAFEQP
0.802 Z-score of the enrichment rate within one screen of 711 sequences | chain 1 SQSKGKKRNIGLKIPKEAFEQP
0.591 Z-score of the enrichment rate within one screen of 711 sequences | chain 1 SQSKGKKRNKGLKIPKEAFEQP
1.04 Z-score of the enrichment rate within one screen of 711 sequences | chain 1 SQSKGKKRNRGLKIPKEAFEQP
-0.594 Z-score of the enrichment rate within one screen of 711 sequences | chain 1 SQSKGKKRNEGLKIPKEAFEQP
0.417 Z-score of the enrichment rate within one screen of 711 sequences | chain 1 SQSKGKKRNQGLKIPKEAFEQP
1.57 Z-score of the enrichment rate within one screen of 711 sequences | chain 1 SQSKGKKRNHGLKIPKEAFEQP
-0.618 Z-score of the enrichment rate within one screen of 711 sequences | chain 1 SQSKGKKRNPGCKIPKEAFEQP
-0.0439 Z-score of the enrichment rate within one screen of 711 sequences | chain 1 SQSKGKKRNPGWKIPKEAFEQP
-0.143 Z-score of the enrichment rate within one screen of 711 sequences | chain 1 SQSKGKKRNPGPKIPKEAFEQP
-1.09 Z-score of the enrichment rate within one screen of 711 sequences | chain 1 SQSKGKKRNPGYKIPKEAFEQP
-1.19 Z-score of the enrichment rate within one screen of 711 sequences | chain 1 SQSKGKKRNPGQKIPKEAFEQP
-1.31 Z-score of the enrichment rate within one screen of 711 sequences | chain 1 SQSKGKKRNPGLKRPKEAFEQP
-1.19 Z-score of the enrichment rate within one screen of 711 sequences | chain 1 SQSKGKKRNPGLKYPKEAFEQP
-0.81 Z-score of the enrichment rate within one screen of 711 sequences | chain 1 SQSKGKKRNPGLKCPKEAFEQP
0.51 Z-score of the enrichment rate within one screen of 711 sequences | chain 1 SQSKGKKRNPGLKMPKEAFEQP
-0.189 Z-score of the enrichment rate within one screen of 711 sequences | chain 1 SQSKGKKQNPGLKIPKEAFEQP
1.16 Z-score of the enrichment rate within one screen of 711 sequences | chain 1 SQSKGKKKNPGLKIPKEAFEQP
0.775 Z-score of the enrichment rate within one screen of 711 sequences | chain 1 SQSKGKKFNPGLKIPKEAFEQP
